Starred links: 1 amine or outer side, 2 acyl side, 3 side chain; linkers in the order of their positions; H or OH if unused. Non-standard residues stand in square brackets, D forms with d. *: point of attachment. dThr(OBz) = D-threonine with an O-benzyl (OBz) group, C[C@H](OCc1ccccc1)[C@@H](N[*:1])C(=O)[*:2]; Thr(OBz) = threonine with O-benzyl ester (OBz); dBpa = N[C@H](Cc1ccc(C(=O)c2ccccc2)cc1)C(=O)O; Boc = CC(C)(C)OC(=O)*; Aib = CC(C)(N)C(=O)O
Target: T1, γ-secretase in Chinese hamster ovary (CHO) cells stably transfected with human APP
Assay: cell-based or functional assay

IC50 of Aβ production in APP-transfected cells [nM]	IC50 in the same cell-based assay using CHO cells stably transfected with human APP (total Aβ production) [nM]	IC50 in a cell-based assay from APP-transfected CHO cells [nM]	Binder
2000			Boc-[Aib]AL[Aib]AL[Aib]AL[Aib]-OMe (SMILES COC(=O)C(C)(C)NC(=O)[C@H](CC(C)C)NC(=O)[C@H](C)NC(=O)C(C)(C)NC(=O)[C@H](CC(C)C)NC(=O)[C@H](C)NC(=O)C(C)(C)NC(=O)[C@H](CC(C)C)NC(=O)[C@H](C)NC(=O)C(C)(C)NC(=O)OC(C)(C)C) [Boc-Aib-Ala-Leu-Aib-Ala-Leu-Aib-Ala-Leu-Aib-OMe (SEQ ID NO:13)]
	100		Boc-[dV]G[Aib][dV][dV][dBpa][Aib][dThr(OBz)][dV][Aib]-OMe (SMILES COC(=O)C(C)(C)NC(=O)[C@H](NC(=O)[C@H](NC(=O)C(C)(C)NC(=O)[C@@H](Cc1ccc(C(=O)c2ccccc2)cc1)NC(=O)[C@H](NC(=O)[C@H](NC(=O)C(C)(C)NC(=O)CNC(=O)[C@H](NC(=O)OC(C)(C)C)C(C)C)C(C)C)C(C)C)[C@H](C)OCc1ccccc1)C(C)C) [Boc-D-Val-Gly-Aib-D-Val-D-Val-D-BPA-Aib-D-Thr(OBz)-D-Val-Aib-OMe (SEQ ID NO:11)]
		9	Boc-[dV]G[Aib][dV][dV][dI][Aib][dThr(OBz)][dV][Aib][dV][dI][Aib]-OMe (SMILES CC[C@@H](C)[C@@H](NC(=O)[C@H](NC(=O)[C@H](NC(=O)C(C)(C)NC(=O)CNC(=O)[C@H](NC(=O)OC(C)(C)C)C(C)C)C(C)C)C(C)C)C(=O)NC(C)(C)C(=O)N[C@@H](C(=O)N[C@@H](C(=O)NC(C)(C)C(=O)N[C@@H](C(=O)N[C@@H](C(=O)NC(C)(C)C(=O)OC)[C@H](C)CC)C(C)C)C(C)C)[C@H](C)OCc1ccccc1) [D-peptide Boc-Val-Gly-Aib-Val-Val-Ile-Aib-Thr(OBz)-Val-Aib-Val-Ile-Aib-OMe (SEQ ID NO:18)]

Target: T1, γ-secretase in Chinese hamster ovary …
Assay: cell-based or functional assay
Remark: another data set of the same source

IC50 (concentration that reduced production of total Aβ by 50% in CHO cells stably transfected with human APP) [nM]	Binder
5000	Boc-GV[Aib]IA[Thr(OBz)][Aib]IV[Aib]-OMe [Boc-Gly-Val-Aib-Ile-Ala-Thr(OBz)-Aib-Ile-Val-Aib-OMe (SEQ ID NO:5), all-L]
12000	Boc-VI[Aib][Thr(OBz)]V[Aib]-OMe [Boc-Val-Ile-Aib-Thr(OBz)-Val-Aib-OMe (SEQ ID NO:6), all-L]
15000	Boc-IA[Thr(OBz)][Aib]IV[Aib]-OMe [Boc-Ile-Ala-Thr(OBz)-Aib-Ile-Val-Aib-OMe (SEQ ID NO:2), all-L]
10000	Boc-[Aib]IA[Thr(OBz)][Aib]IV[Aib]-OMe [Boc-Aib-Ile-Ala-Thr(OBz)-Aib-Ile-Val-Aib-OMe (SEQ ID NO:3), all-L]
6000	Boc-[Aib]VVI[Aib][Thr(OBz)]V[Aib]-OMe [Boc-Aib-Val-Val-Ile-Aib-Thr(OBz)-Val-Aib-OMe (SEQ ID NO:8), all-L]
2000	Boc-V[Aib]IA[Thr(OBz)][Aib]IV[Aib]-OMe [Boc-Val-Aib-Ile-Ala-Thr(OBz)-Aib-Ile-Val-Aib-OMe (SEQ ID NO:4), all-L]
3000	Boc-G[Aib]VVI[Aib][Thr(OBz)]V[Aib]-OMe [Boc-Gly-Aib-Val-Val-Ile-Aib-Thr(OBz)-Val-Aib-OMe (SEQ ID NO:9), all-L]
6000	Boc-VVI[Aib][Thr(OBz)]V[Aib]-OMe [Boc-Val-Val-Ile-Aib-Thr(OBz)-Val-Aib-OMe (SEQ ID NO:7), all-L]
3000	Boc-VG[Aib]VVI[Aib][Thr(OBz)]V[Aib]-OMe [Boc-Val-Gly-Aib-Val-Val-Ile-Aib-Thr(OBz)-Val-Aib-OMe (SEQ ID NO:10), all-L]
25000	Boc-A[Thr(OBz)][Aib]IV[Aib]-OMe [Boc-Ala-Thr(OBz)-Aib-Ile-Val-Aib-OMe (SEQ ID NO:1), all-L]

Target: γ-secretase (detergent-solubilized membranes from HeLa cells)
Assay: cell-based or functional assay

Cell-free Assay IC50 (concentration required for 50% inhibition of Aβ40 production) [nM]	Binder
12	Boc-G[Aib][dV][dV][dI][Aib][dThr(OBz)][dV][Aib][dV][dI][Aib]-OMe (SMILES CC[C@@H](C)[C@@H](NC(=O)[C@H](NC(=O)[C@H](NC(=O)C(C)(C)NC(=O)CNC(=O)OC(C)(C)C)C(C)C)C(C)C)C(=O)NC(C)(C)C(=O)N[C@@H](C(=O)N[C@@H](C(=O)NC(C)(C)C(=O)N[C@@H](C(=O)N[C@@H](C(=O)NC(C)(C)C(=O)OC)[C@H](C)CC)C(C)C)C(C)C)[C@H](C)OCc1ccccc1) [D-peptide Boc-Gly-Aib-Val-Val-Ile-Aib-Thr(OBz)-Val-Aib-Val-Ile-Aib-OMe (SEQ ID NO:17)]
26	Boc-G[dL][Aib][dV]G[Aib][dV][dV][dI][Aib][dThr(OBz)][dV][Aib][dV][dI][Aib]-OMe (SMILES CC[C@@H](C)[C@@H](NC(=O)[C@H](NC(=O)[C@H](NC(=O)C(C)(C)NC(=O)CNC(=O)[C@H](NC(=O)C(C)(C)NC(=O)[C@@H](CC(C)C)NC(=O)CNC(=O)OC(C)(C)C)C(C)C)C(C)C)C(C)C)C(=O)NC(C)(C)C(=O)N[C@@H](C(=O)N[C@@H](C(=O)NC(C)(C)C(=O)N[C@@H](C(=O)N[C@@H](C(=O)NC(C)(C)C(=O)OC)[C@H](C)CC)C(C)C)C(C)C)[C@H](C)OCc1ccccc1)
25	Boc-[dV][dV][dI][Aib][dThr(OBz)][dV][Aib][dV][dI][Aib]-OMe (SMILES CC[C@@H](C)[C@@H](NC(=O)[C@H](NC(=O)[C@H](NC(=O)OC(C)(C)C)C(C)C)C(C)C)C(=O)NC(C)(C)C(=O)N[C@@H](C(=O)N[C@@H](C(=O)NC(C)(C)C(=O)N[C@@H](C(=O)N[C@@H](C(=O)NC(C)(C)C(=O)OC)[C@H](C)CC)C(C)C)C(C)C)[C@H](C)OCc1ccccc1) [D-peptide Boc-Val-Val-Ile-Aib-Thr(OBz)-Val-Aib-Val-Ile-Aib-OMe (SEQ ID NO:15)]
360	Boc-G[Aib]VVI[Aib][Thr(OBz)]V[Aib]VI[Aib]-OMe [L-peptide Boc-Gly-Aib-Val-Val-Ile-Aib-Thr(OBz)-Val-Aib-Val-Ile-Aib-OMe (SEQ ID NO:17)]
910	Boc-[Aib]VG[Aib]VVI[Aib][Thr(OBz)]V[Aib]VI[Aib]-OMe [L-peptide Boc-Aib-Val-Gly-Aib-Val-Val-Ile-Aib-Thr(OBz)-Val-Aib-Val-Ile-Aib-OMe (SEQ ID NO:19)]
0.14	Boc-[dV]G[Aib][dV][dV][dI][Aib][dThr(OBz)][dV][Aib][dV][dI][Aib]-OMe (SMILES CC[C@@H](C)[C@@H](NC(=O)[C@H](NC(=O)[C@H](NC(=O)C(C)(C)NC(=O)CNC(=O)[C@H](NC(=O)OC(C)(C)C)C(C)C)C(C)C)C(C)C)C(=O)NC(C)(C)C(=O)N[C@@H](C(=O)N[C@@H](C(=O)NC(C)(C)C(=O)N[C@@H](C(=O)N[C@@H](C(=O)NC(C)(C)C(=O)OC)[C@H](C)CC)C(C)C)C(C)C)[C@H](C)OCc1ccccc1) [D-peptide Boc-Val-Gly-Aib-Val-Val-Ile-Aib-Thr(OBz)-Val-Aib-Val-Ile-Aib-OMe (SEQ ID NO:18)]
11000	Boc-GL[Aib]VG[Aib]VVI[Aib][Thr(OBz)]V[Aib]VI[Aib]-OMe
780	Boc-VG[Aib]VVI[Aib][Thr(OBz)]V[Aib]VI[Aib]-OMe [L-peptide Boc-Val-Gly-Aib-Val-Val-Ile-Aib-Thr(OBz)-Val-Aib-Val-Ile-Aib-OMe (SEQ ID NO:18)]
28	Boc-[Aib][dV][dV][dI][Aib][dThr(OBz)][dV][Aib][dV][dI][Aib]-OMe (SMILES CC[C@@H](C)[C@@H](NC(=O)[C@H](NC(=O)[C@H](NC(=O)C(C)(C)NC(=O)OC(C)(C)C)C(C)C)C(C)C)C(=O)NC(C)(C)C(=O)N[C@@H](C(=O)N[C@@H](C(=O)NC(C)(C)C(=O)N[C@@H](C(=O)N[C@@H](C(=O)NC(C)(C)C(=O)OC)[C@H](C)CC)C(C)C)C(C)C)[C@H](C)OCc1ccccc1) [D-peptide Boc-Aib-Val-Val-Ile-Aib-Thr(OBz)-Val-Aib-Val-Ile-Aib-OMe (SEQ ID NO:16)]
16	Boc-[dL][Aib][dV]G[Aib][dV][dV][dI][Aib][dThr(OBz)][dV][Aib][dV][dI][Aib]-OMe (SMILES CC[C@@H](C)[C@@H](NC(=O)[C@H](NC(=O)[C@H](NC(=O)C(C)(C)NC(=O)CNC(=O)[C@H](NC(=O)C(C)(C)NC(=O)[C@@H](CC(C)C)NC(=O)OC(C)(C)C)C(C)C)C(C)C)C(C)C)C(=O)NC(C)(C)C(=O)N[C@@H](C(=O)N[C@@H](C(=O)NC(C)(C)C(=O)N[C@@H](C(=O)N[C@@H](C(=O)NC(C)(C)C(=O)OC)[C@H](C)CC)C(C)C)C(C)C)[C@H](C)OCc1ccccc1) [D-peptide Boc-Leu-Aib-Val-Gly-Aib-Val-Val-Ile-Aib-Thr(OBz)-Val-Aib-Val-Ile-Aib-OMe (SEQ ID NO:20)]
10000	Boc-VVI[Aib][Thr(OBz)]V[Aib]VI[Aib]-OMe [L-peptide Boc-Val-Val-Ile-Aib-Thr(OBz)-Val-Aib-Val-Ile-Aib-OMe (SEQ ID NO:15)]
14	Boc-[Aib][dV]G[Aib][dV][dV][dI][Aib][dThr(OBz)][dV][Aib][dV][dI][Aib]-OMe (SMILES CC[C@@H](C)[C@@H](NC(=O)[C@H](NC(=O)[C@H](NC(=O)C(C)(C)NC(=O)CNC(=O)[C@H](NC(=O)C(C)(C)NC(=O)OC(C)(C)C)C(C)C)C(C)C)C(C)C)C(=O)NC(C)(C)C(=O)N[C@@H](C(=O)N[C@@H](C(=O)NC(C)(C)C(=O)N[C@@H](C(=O)N[C@@H](C(=O)NC(C)(C)C(=O)OC)[C@H](C)CC)C(C)C)C(C)C)[C@H](C)OCc1ccccc1) [D-peptide Boc-Aib-Val-Gly-Aib-Val-Val-Ile-Aib-Thr(OBz)-Val-Aib-Val-Ile-Aib-OMe (SEQ ID NO:19)]
4700	Boc-L[Aib]VG[Aib]VVI[Aib][Thr(OBz)]V[Aib]VI[Aib]-OMe [L-peptide Boc-Leu-Aib-Val-Gly-Aib-Val-Val-Ile-Aib-Thr(OBz)-Val-Aib-Val-Ile-Aib-OMe (SEQ ID NO:20)]
3100	Boc-[Aib]VVI[Aib][Thr(OBz)]V[Aib]VI[Aib]-OMe [L-peptide Boc-Aib-Val-Val-Ile-Aib-Thr(OBz)-Val-Aib-Val-Ile-Aib-OMe (SEQ ID NO:16)]
